The values that follow come from US20260139017A1, “COMPOSITIONS AND METHODS USING REELIN IN ALZHEIMER'S DISEASE” (The General Hospital Corporation, priority 2022, published 2026).

“Also recorded” adds a separate entry of the source.

The subject of one test is total DAB1. The experiment in a line: Overexpression of mini-RELN constructs in HRECs, total DAB1 western blot. Particulars: 24 h overexpression in HRECs. Type of test: cell-based, human. On the procedure: For in vitro overexpression, the HRECs were cultured in EBM-2 media enriched with EGM-2 Single Quots (Lonza) at 37° C. and 5% CO2 and experimentally tested at passage 7. 24 h prior experiment, cells were plated on a 6-well plate at 500,000 cells/mL. The cell transfection of plasmids was done with Lipofectamine 2000 (5 μL, Life technologies) according to the manufacturer. In detail, one day prior to transfection, cells were seeded to be 70% confluent at moment of transfection. The day of transfection lipofectamine was diluted and incubated for 10 minutes at room temperature, to allow the formation of the lipophilic complex. Subsequently, each plasmid (1 μg, Invivogen) was added to the lipid complex of Lipofectamine and incubated for 10 minutes. We used OPTIMEM media (Gibco) to block the transfection after 5 hours, to allow cells to recover and facilitate replication. Prior 5 h and 24 h post-transfection, cells were imaged using 10× magnification light microscope (Olympus CKX53).
24 h post-transfection, cells were harvested for western blotting analysis. Total protein levels were quantified via BCA assay. […] We detected β-actin (1:5000, mouse, #66009-1-Ig, Proteintech), and total DAB1(1:100, SC-red tube; sc-271136 Dab1 (G-5), Santa Cruz). […] To quantify the results, each band was quantified using ImageJ and data expressed as DAB1:β-actin ratio normalized to the control. […]
(In general: Immunoblotting shows a protein as a band on a membrane.)

The subject of the next test is pDAB1. The experiment in a line: Trans-nasal (MIND) delivery of mini-RELN in mice, brain pDAB1 western blot. It is filed as in vivo. As to conditions: WT male mice, 72 h post-trans-nasal delivery. An excerpt: We used a MIND procure (trans nasal delivery using Minimally Invasive Nasal Depot (MIND), Padmakumar et al., J Control Release. 2021 Mar. 10; 331: 176-186) or intraperitoneal injection to administer miniRELN constructs into mice. MIND leverages the olfactory nerve to bypass the blood brain barrier. […] Using the MIND methodology provides one method of reaching the entorhinal cortex with minimal systemic exposure. […] (Jackson Laboratory) were housed under regular light/night cycle. All procedures were conducted under approved IACUC animal protocols. Prior to incision, the nasal region was shaved and cleaned using betadine and 70% alcohol and mouse subcutaneously injected with buprenorphine HCl and meloxicam (5 mg/kg). The nasal cavity was then opened using a scalped and nasal mucosa exposed using a microdrill. Once the mucosa was exposed, gel dispersion of either PBS or mini-RELN constructs (Innovagen) in 20% Pluronic (Sigma Aldrich) was subcutaneously delivered in the surgically-generated pocket. Mice were injected with meloxicam for 3 days prior euthanasia at day 4 to collect the brain tissue used for post-mortem analysis.
Western blotting was performed as follows. 20 ug protein homogenates were prepared under reducing and denaturing conditions using Laemmli buffer enriched with 10 mM DTT and 5 min boiling. Samples were electrophoretically separated in a 4-20% Gel at 90V and protein transferred to a PVDF membrane using iBlot™ 2 Dry Blotting System. The membrane was blocked using Intercept® (TBS) Blocking Buffer for 2 hours. We detected pDAB1 (Tyr232; 1:1000, rabbit, #3325 Cell signaling), and Beta actin (1:5000, mouse, #66009-1-Ig, Proteintech). Antibodies were diluted using Intercept® (TBS) Blocking Buffer and incubated overnight at 4C under gentle shaking. Prior secondary antibody incubation, membranes were washes 2 times using TBS-T for 10 minutes. As secondary antibodies we used IR Dye 800n CW Goat-anti-Rabbit (925-32211, Licor) and IR Dye 680 CW Goat-anti-Mouse (925-68070, Licor) both diluted 1:10000 in blocking buffer for 1 h at room temperature under gentle shaking. Membranes were washed three times with TBS-T prior IR detection using Odyssey imager. To quantify the results, each band was quantified using ImageJ and data expressed as pDAB1:βActin ratio normalized to the control.

The test system of a further test is pDAB1 (Tyr232). The experiment in a line: HRECs treated 5 minutes with recombinant mini-RELN, pDAB1 western blot. It is filed as cell-based, human. On the procedure:
For in vitro screening of constructs using recombinant mini-RELN on HRECs, the cells were cultured in EBM-2 media enriched with EGM-2 Single Quots (Lonza) at 37° C. and 5% CO2 and experimentally tested at passage 7. 24 h prior experiment, cells were plated on a 6-well plate at 500,000 cells/mL. Two hours before the experiment, the cells were washed with PBS to remove residual growth media and then incubated with a starving media including EBM-2, 1% GlutaMax+0.2% Normicin. Treatments was conducted using recombinant mini RELN constructs obtained from Innovagen and Recombinant Mouse Reelin Protein from R&D systems (3820-MR-025/CF). Each treatment was incubated for 5 minutes at 4 ug/mL concentration and cells were subsequently harvested in lysis buffer was applied constituted of RIPA (Cell signaling), proteases inhibitors (cOmplete™, Mini, EDTA-free Protease Inhibitor Cocktail, Roche), phosphatases inhibitors (PhosSTOP, Roche), 1 μL of proteasome inhibitor MG-132 10 mM, 1% Triton X 100. The lysates were scraped and centrifugated at 15000 rpm for 10 minutes at 4° C. Total protein levels were quantified via BCA assay. For Western Blotting, 3.5 ug protein homogenates were prepared under reducing and denaturing conditions using Laemmli buffer enriched with 10 mM DTT and 5 min boiling. Samples were electrophoretically separated in a 4-20% Gel at 90V and protein transferred to a PVDF membrane using iBlot™ 2 Dry Blotting System. The membrane was blocked using Intercept® (TBS) Blocking Buffer for 2 hours. We detected pDAB1 (Tyr232; 1:1000, rabbit, #3325 Cell signaling), and total protein staining (Licor). Antibodies were diluted using Intercept® (TBS) Blocking Buffer and incubated overnight at 4C under gentle shaking. Prior secondary antibody incubation, membranes were washed 2 times using TBS-T for 10 minutes. As secondary antibodies we used IR Dye 800n CW Goat-anti-Rabbit (925-32211, Licor) diluted 1:10000 in blocking buffer for 1 h at room temperature under gentle shaking. Membranes were washed three times with TBST-T prior IR detection using Odyssey imager. To quantify the results, each band was quantified using ImageJ and data expressed as pDABL:total protein ratio normalized to the control.

B1: 6xHISCR-50-R5-6-CtermH3447R (protein)
chain: MYRMQLLSCIALSLALVTNSGGHHHHHHGGEQCGAIMHGNAVTFCEPYGPRELITTGLNTTTASVLQFSIGSGSCRFSYSDPSIIVLYAKNNSADWIQLEKIRAPSNVSTIIHILYLPEDAKGENVQFQWKQENLRVGEVYEACWALGSRGGQTNATRFRLWQPYNNGKKEEIWIVDDFIIDGNNVNNPVMLLDTFDFGPREDNWFFYPGGNIGLYCPYSSKGAPEEDSAMVFVSNEVGEHSITTRDLNVNENTIIQFEINVGCSTDSSSADPVRLEFSRDFGATWHLLLPLCYHSSSHVSSLCSTEHHPSSTYYAGTMQGWRREVVHFGKLHLCGSVRFRWYQGFYPAGSQPVTWAIDNVYIGPQCEEMCNGQGSCINGTKCICDPGYSGPTCKISTKNPDFLKDDFEGQLESDRFLLMSGGKPSRKCGILSSGNNLFFNEDGLRMLMTRDLDLSHARFVQFFMRLGCGKGVPDPRSQPVLLQYSLNGGLSWSLLQEFLFSNSSNVGRYIALEIPLKARSGSTRLRWWQPSENGHFYSPWVIDQILIGGNISGNMVLEDDFTTLDSRKWLLHPGGTKMPVCGSTGDALVFIEKASTRYVVSTDVAVNEDSFLQIDFAVSCSVTDSCYAIELEYSVDLGLSWHPLVRDCLPTNVECSRYHLQRILVSDTFNKWTRITLPLPPYTRSQATRFRWHQPAPFDKQQTWAIDNVYIGDGCIDMCSGHGRCIQGNCVCDEQWGGLYCDDPETSLPTQLKDNFNRAPSSQNWLTVNGGKLSTVCGAVASGMALHFSGGCSRLLVTVDLNLTNAEFIQFYFMYGCLITPNNRNQGVLLEYSVNGGITWNLLMEIFYDQYSKPGFVNILLPPDAKEIATRFRWWQPRHDGLDQNDWAIDNVLISGSASTRKQNYMMNFSRQHGLRRFYNRRRRSLRRYP
In the case of B1, the “total DAB1 levels normalized to β-actin and lipofectamine control” value with total DAB1 was “the most active”. Besides, in the test with pDAB1, the “pDAB1 levels in the hippocampus” value is recorded as “increased” and the “pDAB1 levels in the midbrain” value was “increased”. Also, the “efficacy at RELN signaling (pDAB1) relative to comparators” value with pDAB1 (Tyr232) (5 minutes treatment) was “more effective than commercially available positive control; also recorded: more effective at triggering signaling compared to full-length RELN WT and full-length RELN COLBOS”. The pDAB1 levels entry in the test with pDAB1 (Tyr232) (5 minutes, 4 ug/mL recombinant protein) is recorded as “increased pDAB1 levels”.
